Measurements taken from US20220089784A1 (University of California, published 2022).

B1: 4C2 scFv (scFv, V domains shown)
VH: EVQLVQSGGNLVQPGGSLRLSCTASGFIFSNHWMQWVRQIPGKGLMWVSRINDSGRSTSYAGFVKGRFTMSRDNAKNTLFLQMNSLTAEDTGVYYCVRETWEVLGHLGYEVLDHWGLGTLVTVSS
VL: DIVMTQSPSSLSASVGDRVTITCRASQGISSYLAWYQQKPGKAPKLLIYAASTLQSGVPSRFSGSGSGTEFTLTISSLQPEDFATYYCQQLNSYPRTFGQGTKVDIK
notes: human
B2: 1C2 scFv (scFv, V domains shown)
VH: QVQLQQSGAEVRKSGASVKVSCKTSGYTFTTYYIHWVRQAPGQGLEWMGMIDPRGGSASYAQRFQGRVTMTRDTSTTTVFLALNSLESNDTAVYYCARGGLPYQQLPLWGQGTLVTVSS
VL: not shown
notes: human
B3: 1C1 scFv (scFv, V domains shown)
VH: QVQLQESGSGLVKPSQSLSLTCAVSGGSISSGDYSWSWIRQPPGEGLEWIGYIFPRGSTYYNPSLRSRVTMSVDRSKNQFSLSLNSVTAADTAVYYCARTKMGAAEGVFDYWGQGTLVTVSS
VL: DIVMTQSPSTLSASVGDRVTITCRASQSVSTWLAWYQQKPGKAPNLLISEASNLESGVPSRFSGSGSGTEFTLTISSLQPDDFAIYYCQQYNSYVWTFGQGTKLEIK
notes: human
B4: 1C1.1 scFv (scFv, V domains shown)
VH: B3 VH
VL: EIVLTQSPSSLPASVGDRVTITCRASQSIGTYLNWYQHKPGSAPKLLINAASSLQSGVPSRFSGSGSGTDFTLTISSLQPDDFATYYCQQYNSYTWTFGQGTKVGIK
notes: human
B5: 1C8 scFv (scFv, V domains shown)
VH: QVQLQQSGAEVKKPGASVKVSCKASAFTFNSNYIHWVRLAPGQGPEWMGIINPDGGRTTYAQKFQGRITMTTDTSTYAVYMELSSLRSEDTAVYYCARGATNIPYGMSVWGQGTTVTVSS
VL: DIVMTQSPSSLSASVGDRVTITCRASQAIRNDLGWYQQEPGKAPKLLIYAASTLQSGVPSRFSGRGSGTDFTLTISSLQPEDFATYYCLQHNSYPLTFGGGTKVDIK
notes: human
B6: 4C10 scFv (scFv, V domains shown)
VH: QVQLVESGGGAVQPGESLRLSCAASGFTFSGFDMHWVRQSPGRGLEWVARISHDGSMADYADSLRGRFTISRDNPKNTLYLHMNSLRVEDTALYYCAKDRWRSGSYPAFEKWGQGTMVTVSS
VL: QSVPTQPASVSGSPGQSITISCTGTSSDVGAYNYVSWYQQHPGKAPKLMIYDVSDRPSGVSNRFSGSKSGNTASLTISGLQAEDEADYYCSSYTSSSTYVFGTGTKLTVL
notes: human
B7: 87C1 scFv (scFv, V domains shown)
VH: QVQLQQSGGGVVQPGRSLRLSCAGSGFTLSTYGMHWVRQAPGKGLEWVAVISNDGSKEYYADSVKGRFAISRDNSKNTLSLQMNGLRAEDTAIYYCAKAIKSYSTIGGACNLWGQGTMVTVSS
VL: DIVMTQSPSFLSASVGDRVTITCRASQSISSYLNWYQQKPGKAPKLLIYAASSLQSGVPSRFSGSRSGTYFTLTISSLQPEDFATYYCQQSYITWTFGQGTRLEIK
notes: human
B8: 8DC3.1 scFv (scFv, V domains shown)
VH: QVQLVQSRGGLVKPGGSLRLSCAASGFTFSSHSMNWVRQAPGKGLEWVSSISSSSSYIYYADSVKGRFTISRDNSKNSLYLQLNSLRAEDTAVYYCARDQGGGSVVGTNWFDPWGQGTLVTVSS
VL: SALTQPASVSGSPGQSVTISCTGTSSDVGGYNYVSWYQQHPGKAPKLMIYDVSKRPSGVPDRFSGSKSGNTASLTISGLQAEDEADYYCCSYAGRYTYVFGTGTKVTVL
notes: human
B9: 8DC8 scFv (scFv, V domains shown)
VH: QVQLQQSGPGLVKPSETLSLTCTVSGGSISSAGYSWSWIRQSPGKGLECLGYIYQTGSTFYNLSLKGRVTMSLDRSKNQISLRLTSVVAADTAVYYCARVVGVYPGWFDSWGQGTLVTVSS
VL: DIVMTQSPSTLSASVGDRVTITCRASQSINIWMAWYQQKPGKAPKLLVYKASSLESGVPSRFSGSGSGTEFTLTISSLQPDDFATYYCQQYNSYGTFGKGTKVEIK
notes: human
B10: 8DC8.3 scFv (scFv, V domains shown)
VH: B9 VH
VL: DIVMTQSPSSLSASVGDRVTITCRASQSVSRWLAWYQQKPGKPPKLLIYEASSLESGVPSRFSGSGSGTDFTLTITSLQPEDFATYYCQQYENLPPSTFGGGTKLEIK
notes: human
B11: 8D2 scFv (scFv, V domains shown)
VH: QVQLVQSGAEVKKPGESLKISCKGSGYSFTSYWIGWVRQMPGKGLEWMGIIYPGDSDTRYSPSFQGQVTISADKSISTAYLQWSSLKASDTAMYYCVSYSSLDAFDIWGQGTMVTVSS
VL: EIVLTQSPSSLSASVGDRVTITCQASQDISNSLCWYQQKPGKAPKLLIYDASNLETGVPSRFSGSGSGTDFIFTISSLQPEDIATYYCQQYDNLLRVFGGGTKLEIK
notes: human
B12: 8DC6 scFv (scFv, V domains shown)
VH: EVQMVESGGGVVQPGRSLRLSCAASGFTFTSYAMHWVRQAPGKGLEWVAMISNDESNTKYADSVKGRFTISRDNSKNTLFLQMNSLRAEDTAMYSCARGGYYTRPLAFDTWGPGTTVTVSS
VL: DVVMTQSPSSVSASVGDRVTITCRASQGISSYLAWYQQKPGKVPKLLIYAASSLQRGVPSRFSGSGSGTDFTLTISRLQPEDVATYYCQKYNSAPLTFGGGTKVEIK
notes: human
B13: 8DC15 scFv (scFv, V domains shown)
VH: QVQLQESGPGLLKPSQTLSLTCSVSGGSMITGGYYWTWVRQLPGKGLEWIGHVYYTGKTYYNPSLNGRFTIAIDTSKNQFSLNLNSVTATDTAVFYCARAIWGGWYFDLWGQGTLVTVSS
VL: DIQMTQSPSSLSASVGDRITITCRASRDIRDDLAWYQQKPGKAPKLLIYAASSLQSGVPSRFSGSGSGTEFTLTISSLQPEDFATYYCQQANSFPLTFGGGTKVDIK
notes: human

Molecular target: T1, BoNT/C1 holotoxin (Clostridium botulinum, UniProt P18640 2-1291)
T1 sequence: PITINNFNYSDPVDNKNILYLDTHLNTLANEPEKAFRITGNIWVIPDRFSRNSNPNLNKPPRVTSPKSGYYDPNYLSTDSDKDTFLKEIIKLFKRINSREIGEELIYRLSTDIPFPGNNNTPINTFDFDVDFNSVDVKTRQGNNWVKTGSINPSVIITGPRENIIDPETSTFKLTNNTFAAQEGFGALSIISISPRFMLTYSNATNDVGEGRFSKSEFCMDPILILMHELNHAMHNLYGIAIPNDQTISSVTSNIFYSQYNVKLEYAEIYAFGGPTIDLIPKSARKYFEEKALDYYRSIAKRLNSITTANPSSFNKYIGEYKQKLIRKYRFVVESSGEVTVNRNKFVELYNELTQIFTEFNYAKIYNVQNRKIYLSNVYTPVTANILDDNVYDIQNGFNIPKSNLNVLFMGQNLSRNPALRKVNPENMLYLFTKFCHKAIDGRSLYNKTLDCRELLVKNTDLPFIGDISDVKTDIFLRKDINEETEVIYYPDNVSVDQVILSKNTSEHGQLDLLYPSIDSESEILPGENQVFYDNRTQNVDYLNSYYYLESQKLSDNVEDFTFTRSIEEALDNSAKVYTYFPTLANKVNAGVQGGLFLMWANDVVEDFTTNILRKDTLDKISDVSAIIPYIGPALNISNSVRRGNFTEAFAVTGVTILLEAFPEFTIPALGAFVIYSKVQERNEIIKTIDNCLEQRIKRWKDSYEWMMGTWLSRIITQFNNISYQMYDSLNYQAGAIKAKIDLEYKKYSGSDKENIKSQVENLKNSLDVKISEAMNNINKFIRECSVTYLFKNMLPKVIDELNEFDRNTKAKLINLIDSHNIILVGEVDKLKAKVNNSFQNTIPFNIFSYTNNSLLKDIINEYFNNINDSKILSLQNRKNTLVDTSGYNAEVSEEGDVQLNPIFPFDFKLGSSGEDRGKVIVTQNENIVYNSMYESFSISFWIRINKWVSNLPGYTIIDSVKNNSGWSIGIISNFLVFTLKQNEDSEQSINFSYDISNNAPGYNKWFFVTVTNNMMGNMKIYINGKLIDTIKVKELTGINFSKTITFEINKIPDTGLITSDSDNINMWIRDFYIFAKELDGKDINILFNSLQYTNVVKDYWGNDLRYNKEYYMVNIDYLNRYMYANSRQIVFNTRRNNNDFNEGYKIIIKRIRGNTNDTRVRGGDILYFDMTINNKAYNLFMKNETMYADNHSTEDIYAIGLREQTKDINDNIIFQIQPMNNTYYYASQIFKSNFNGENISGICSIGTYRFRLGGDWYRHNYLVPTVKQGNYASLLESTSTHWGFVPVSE
Experiment: yeast scFv FACS

| Binder | Kd |
| --- | --- |
| B1 | 0.19 nM |
| B2 | 24 nM |
| B3 | 0.5 nM |
| B4 | 0.15 nM |
| B5 | 42 nM |
| B6 | 0.39 nM |
| B7 | 2 nM |

Molecular target: T1, BoNT/C1 holotoxin
Experiment: yeast scFv FACS
Remark: another data set of the same source

| Binder | binding result |
| --- | --- |
| B8 | no binding (tested: ~1 µM) |
| B9 | no binding (tested: ~1 µM) |
| B10 | no binding (tested: ~1 µM) |
| B11 | no binding (tested: ~1 µM) |
| B12 | no binding (tested: ~1 µM) |

Molecular target: T2, BoNT/D (Clostridium botulinum, UniProt P19321 2-1276)
T2 sequence: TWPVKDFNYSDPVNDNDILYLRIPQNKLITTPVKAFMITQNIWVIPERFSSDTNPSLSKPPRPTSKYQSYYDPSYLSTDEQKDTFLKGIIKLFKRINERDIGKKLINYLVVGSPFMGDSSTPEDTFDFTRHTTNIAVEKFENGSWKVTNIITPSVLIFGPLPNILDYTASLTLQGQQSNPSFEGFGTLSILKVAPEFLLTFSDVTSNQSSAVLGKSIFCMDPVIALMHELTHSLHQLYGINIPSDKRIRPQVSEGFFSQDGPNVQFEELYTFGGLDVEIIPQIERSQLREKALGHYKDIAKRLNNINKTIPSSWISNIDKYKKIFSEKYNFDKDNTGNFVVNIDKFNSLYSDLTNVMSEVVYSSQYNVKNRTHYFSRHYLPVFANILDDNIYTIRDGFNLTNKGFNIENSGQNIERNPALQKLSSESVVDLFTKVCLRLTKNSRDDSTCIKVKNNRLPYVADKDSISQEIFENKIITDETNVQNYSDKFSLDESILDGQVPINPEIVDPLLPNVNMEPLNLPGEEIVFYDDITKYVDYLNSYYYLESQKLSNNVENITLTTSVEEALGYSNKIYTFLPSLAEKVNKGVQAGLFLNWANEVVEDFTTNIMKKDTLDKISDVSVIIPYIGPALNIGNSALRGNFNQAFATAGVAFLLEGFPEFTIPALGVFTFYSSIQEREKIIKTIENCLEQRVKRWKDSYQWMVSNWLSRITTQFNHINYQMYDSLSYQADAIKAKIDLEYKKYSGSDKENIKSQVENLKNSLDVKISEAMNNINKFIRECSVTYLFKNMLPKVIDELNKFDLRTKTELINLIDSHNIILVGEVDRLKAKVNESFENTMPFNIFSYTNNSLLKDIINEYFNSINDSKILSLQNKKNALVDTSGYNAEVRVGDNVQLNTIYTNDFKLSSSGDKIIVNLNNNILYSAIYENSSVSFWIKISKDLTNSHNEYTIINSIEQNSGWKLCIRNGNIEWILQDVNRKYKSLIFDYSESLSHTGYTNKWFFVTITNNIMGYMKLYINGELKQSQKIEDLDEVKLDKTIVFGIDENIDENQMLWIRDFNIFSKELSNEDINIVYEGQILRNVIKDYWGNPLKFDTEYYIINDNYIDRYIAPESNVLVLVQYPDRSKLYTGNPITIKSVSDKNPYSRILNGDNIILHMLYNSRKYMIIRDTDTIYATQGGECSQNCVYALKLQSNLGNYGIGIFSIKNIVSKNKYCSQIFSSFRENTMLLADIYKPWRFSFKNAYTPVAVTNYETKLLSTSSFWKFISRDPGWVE
Experiment: yeast scFv FACS

| Binder | binding result |
| --- | --- |
| B2 | no binding (tested: ~1 µM) |
| B8 | binds |
| B3 | no binding (tested: ~1 µM) |
| B4 | no binding (tested: ~1 µM) |
| B7 | no binding (tested: ~1 µM) |
| B13 | no binding (tested: ~1 µM) |
